Experimental findings from paper PMC6925134 are described below.

For experiment [1], the target named is RNF208 (UniProt Q9H0X6). As to the kind of experiment: anti-Flag co-IP, Myc immunoblot. The settings on record: reference: wild type; sites S39. (Immunoblotting shows a protein as a band on a membrane.)
The target in experiment [2] is RNF208 (UniProt Q9H0X6). The experiment in a line: anti-Flag co-IP, immunoblot. Conditions: reference: wild type; sites S39.

As to Vimentin (from UniProt P08670) S39A, the “binding against the reference” value with RNF208 [1] is given as “lost”; with RNF208 [2], “weaker”.
